Assay results taken from article PMC8605023.

Columns and labels:
[1] = molecular target: ATG9A FITC-…
[2] = molecular target: SQSTM1 FITC-…
[3] = molecular target: FITC-SQSTM1 peptide 335-344 (human)
USP7 (human) = USP7 (human) (UniProt Q93009)
AP2M1 (human) = AP2M1 (human) (UniProt Q96CW1)
[4] = molecular target: G3BP2 NTF2 domain (human) (UniProt Q9UN86)
[5] = molecular target: G3BP1 NTF2 domain (human) (UniProt Q13283)
[6] = molecular target: MAP1LC3C ATG8 domain (human) (UniProt Q9BXW4)
USP7 MATH = assay: FP
[7] = molecular target: ATG8 domain of MAP1LC3C (human) (UniProt Q9BXW4); assay: FP
[8] = molecular target: FITC-MDM2 peptide (human)

Chain of USP7 (human) (Q93009 whole entry): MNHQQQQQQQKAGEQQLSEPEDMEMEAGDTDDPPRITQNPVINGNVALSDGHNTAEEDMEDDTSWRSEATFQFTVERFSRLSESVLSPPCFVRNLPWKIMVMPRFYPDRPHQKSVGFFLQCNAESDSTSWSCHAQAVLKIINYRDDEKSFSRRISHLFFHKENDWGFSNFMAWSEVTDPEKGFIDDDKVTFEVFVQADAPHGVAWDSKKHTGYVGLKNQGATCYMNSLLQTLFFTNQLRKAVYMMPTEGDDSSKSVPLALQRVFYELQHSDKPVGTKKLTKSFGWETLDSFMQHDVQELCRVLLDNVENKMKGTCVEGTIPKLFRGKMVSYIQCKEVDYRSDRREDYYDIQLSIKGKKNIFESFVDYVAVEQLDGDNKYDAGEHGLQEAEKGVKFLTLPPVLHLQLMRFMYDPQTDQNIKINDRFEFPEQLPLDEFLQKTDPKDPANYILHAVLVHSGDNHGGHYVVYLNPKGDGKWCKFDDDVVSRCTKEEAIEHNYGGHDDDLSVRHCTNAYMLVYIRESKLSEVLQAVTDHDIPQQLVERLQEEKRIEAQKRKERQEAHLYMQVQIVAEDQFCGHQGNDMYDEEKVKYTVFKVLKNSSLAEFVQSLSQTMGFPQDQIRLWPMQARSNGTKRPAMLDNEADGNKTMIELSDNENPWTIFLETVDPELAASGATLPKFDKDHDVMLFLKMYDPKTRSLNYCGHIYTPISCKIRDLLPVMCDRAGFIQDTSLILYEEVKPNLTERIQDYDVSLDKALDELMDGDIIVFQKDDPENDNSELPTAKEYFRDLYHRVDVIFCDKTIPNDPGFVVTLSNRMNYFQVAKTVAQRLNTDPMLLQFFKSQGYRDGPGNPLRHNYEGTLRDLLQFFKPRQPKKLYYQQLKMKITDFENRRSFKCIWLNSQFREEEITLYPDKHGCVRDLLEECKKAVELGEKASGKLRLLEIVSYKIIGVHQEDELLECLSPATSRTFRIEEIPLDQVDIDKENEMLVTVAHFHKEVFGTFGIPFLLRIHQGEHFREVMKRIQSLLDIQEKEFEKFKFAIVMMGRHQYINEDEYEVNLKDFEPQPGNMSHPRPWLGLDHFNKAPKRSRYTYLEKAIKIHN
Chain of G3BP2 NTF2 domain (human) (Q9UN86 11-133): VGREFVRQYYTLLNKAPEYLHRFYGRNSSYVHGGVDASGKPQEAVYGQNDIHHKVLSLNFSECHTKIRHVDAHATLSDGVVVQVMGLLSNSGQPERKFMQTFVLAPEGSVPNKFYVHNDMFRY
Chain of AP2M1 (human) (Q96CW1 whole entry, the tested form may be a part): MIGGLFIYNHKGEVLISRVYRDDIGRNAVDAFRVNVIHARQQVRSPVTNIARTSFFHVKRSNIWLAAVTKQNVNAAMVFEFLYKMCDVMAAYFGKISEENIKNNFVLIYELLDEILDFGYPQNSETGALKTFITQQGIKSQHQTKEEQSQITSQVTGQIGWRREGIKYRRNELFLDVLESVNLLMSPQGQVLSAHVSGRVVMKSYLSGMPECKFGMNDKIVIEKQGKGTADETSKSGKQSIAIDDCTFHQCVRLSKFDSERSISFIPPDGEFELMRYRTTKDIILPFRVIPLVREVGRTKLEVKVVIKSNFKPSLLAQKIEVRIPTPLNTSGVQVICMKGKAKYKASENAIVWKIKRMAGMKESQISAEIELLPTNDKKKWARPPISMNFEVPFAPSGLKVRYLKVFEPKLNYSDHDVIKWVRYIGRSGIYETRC
Chain of G3BP1 NTF2 domain (human) (Q13283 11-133): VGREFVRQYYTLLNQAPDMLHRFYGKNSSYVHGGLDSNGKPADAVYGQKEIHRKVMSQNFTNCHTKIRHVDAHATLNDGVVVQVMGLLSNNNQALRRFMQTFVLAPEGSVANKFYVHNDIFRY
Chain of ATG8 domain of MAP1LC3C (human) (Q9BXW4 whole entry, the tested form may be a part): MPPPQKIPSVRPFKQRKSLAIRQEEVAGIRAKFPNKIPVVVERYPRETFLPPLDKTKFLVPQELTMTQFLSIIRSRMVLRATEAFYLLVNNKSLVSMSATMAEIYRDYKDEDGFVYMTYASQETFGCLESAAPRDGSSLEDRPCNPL
Chain of MAP1LC3C ATG8 domain (human) (Q9BXW4 1-126): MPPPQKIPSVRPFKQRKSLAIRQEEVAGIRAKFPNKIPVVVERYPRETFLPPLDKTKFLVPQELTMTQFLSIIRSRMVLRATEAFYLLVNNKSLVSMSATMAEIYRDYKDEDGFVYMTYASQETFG

In the case of “AP2M1 (from UniProt Q96CW1 1-435) (domain or fragment)”, the Kd [1] is reported as 1.1 µM.
For “MAP1LC3C ATG8 domain (from UniProt Q9BXW4 1-126) (domain or fragment)”, the Kd [2] was 1.1 µM and the Kd [3] was 1.1 µM.
N peptide 206-220 (Sars-CoV) was tested, and the IC50 (USP7 (human)) was 1500 µM and the Ki (USP7 (human)) was 220 µM.
Work on N peptide 353-367 (Sars-CoV2/Sars-CoV) yielded an IC50 (AP2M1 (human)) of 1530 µM and a Ki (AP2M1 (human)) of 530 µM.
N peptide 406-422 (Sars-CoV) showed an IC50 (USP7 (human)) of 690 µM and a Ki (USP7 (human)) of 96 µM.
NSP1 peptide 161-177 (Sars-CoV) gave an IC50 (USP7 (human)) of 2000 µM and a Ki (USP7 (human)) of 280 µM.
Work on “NSP3 peptide 1785-1796 (SFV, Semliki-Forest-Virus)” yielded an IC50 [4] of 13 µM and an IC50 [5] of 23 µM.
For “NSP3 peptide 1785-1809 (SFV, Semliki-Forest-Virus)”, the IC50 [4] was 0.0019 µM, the Ki [4] was 0.15 µM and the IC50 [5] was 0.0044 µM.
“NSP3 peptide 1796-1809 (SFV, Semliki-Forest-Virus)” showed an IC50 [4] of 11 µM.
For NSP3 peptide 1996-2011 (Sars-CoV), the IC50 [6] was 200 µM, the Ki [6] was 28 µM and the IC50 (USP7 (human)) was 210 µM. The Ki (USP7 (human)) was 29 µM.
Substance “NSP4 peptide 3248-3263 (Sars-CoV2/Sars-CoV)” has an IC50 (USP7 (human)) of 480 µM and a Ki (USP7 (human)) of 67 µM.
For NSP14 peptide 6498-6512 (Mers), the Ki (AP2M1 (human)) was 3 µM.
SARS-CoV N 205-219 gave a Kd (USP7 MATH) of 220 µM.
Substance SARS-CoV N 405-419 has a Kd (USP7 MATH) of 96 µM.
With SARS-CoV NSP1 161-176 the Kd (USP7 MATH) was 280 µM.
Work on SARS-CoV NSP3 2019-2034 yielded a Kd (USP7 MATH) of 29 µM.
With SARS-CoV NSP3 2019-2038 the Kd [7] was 28 µM.
In the case of SARS-CoV NSP4 3248-3263, the Kd (USP7 MATH) is reported as 67 µM.
For SARS-CoV-2 N 405-419, the Kd (USP7 MATH) was 150 µM.
In the case of SARS-CoV-2 NSP3 2019-2034, the Kd (USP7 MATH) is reported as 37 µM.
In the case of SARS-CoV-2 NSP3 2019-2038, the Kd [7] is reported as 210 µM.
SARS-CoV-2 NSP4 3248-3263 was tested, and the Kd (USP7 MATH) was 67 µM.
For “USP7 (from UniProt Q93009 1-1102) (domain or fragment)”, the Kd [8] was 0.49 µM.
